Assay [1] deals with Fluos-msR4M-L1 (human) (UniProt P61073). In words: other fluorescence titration; 5 nM Fluos-labeled ectodomain peptide titrated with unlabeled MIF, MIF peptide or CXCL12; 10 mM sodium phosphate, pH 7.4, 1% HFIP; emission at 522 nm; apparent KD, 1/1 binding model; one constant for each of three curves.
The target of assay [2] is 5(6)-carboxytetramethylrhodamine (TAMRA)-msR4M-L1 (human) (UniProt P61073). In words: MST; 100 nM TAMRA-msR4M-L1 titrated with MIF or CXCL12; 20 mM sodium phosphate, pH 7.2, Tween-20; 37 °C; apparent KD.
For assay [3], the target named is Fluos-msR4M-L1 (human) (UniProt P61073). In words: fluorescence polarisation; 5 nM Fluos-msR4M-L1 titrated with unlabeled MIF (0.5 to 277.5 nM); 10 mM sodium phosphate, pH 7.2, 0.5% HFIP; RT; apparent KD. In general terms: In fluorescence polarisation assays a small probe gives low polarisation when free and higher when bound to something large.
In assay [4] the target is Fluos-ECL2 (fluorescein-labelled ECL2[182–196] peptide of CXCR4) (human) (UniProt P61073). In words: other fluorescence titration; Fluos-labelled CXCR4 ectodomain peptide at 5 nM titrated with unlabelled MIF, MIF(10xAla), CXCL12 or MIF peptide fragments; 10 mM sodium phosphate, pH 7.4, 1% HFIP; emission at 522 nm; apparent KD, 1/1 binding model.

From paper PMC7689490, “Designed CXCR4 mimic acts as a soluble chemokine receptor that blocks atherogenic inflammation by agonist-specific targeting” (Nature Communications, 2020) come the findings set out here.

“And” between values parts separate entries of the source, which are not always exact repeats. Equal values may be shown once. A value given as a limit tells only on which side of the number the result lay.

On to “MIF peptide 38–80 (from UniProt P14174 38-80)”, for which, in assay [1], the Kd was 0.0646 µM and 0.049 µM and 0.0577 µM.

As for “MIF peptide 54–80 (from UniProt P14174 54-80)”, in assay [1], the Kd is 0.0866 µM and 0.0597 µM and 0.0653 µM.

With “macrophage migration-inhibitory factor (MIF), recombinant human (from UniProt P14174 1-115) (natural protein)”, the Kd in assay [2] was 0.0517 µM and 0.12 µM and 0.0601 µM; in assay [3] it was 0.0241 µM and 0.0193 µM and 0.0299 µM; in assay [1] it was 0.0447 µM and 0.0404 µM and 0.0369 µM.

In the case of “macrophage migration-inhibitory factor (MIF), recombinant human, unlabelled (from UniProt P14174 1-115) (natural protein)”, the Kd in assay [4] is over 5 µM.
